Target: Glycylhalorhodopsin from Salinarimonas soli (SsGHR) (Salinarimonas soli)
Assay: crystal structure

- stoichiometry N: 3
Substance: Glycylhalorhodopsin from Salinarimonas soli (SsGHR) (natural protein)
